# Test system: Histone H1
# Sequence of Pim1 K67A mutant fused to GFP with a myc tag (chain, as listed by the source K67A): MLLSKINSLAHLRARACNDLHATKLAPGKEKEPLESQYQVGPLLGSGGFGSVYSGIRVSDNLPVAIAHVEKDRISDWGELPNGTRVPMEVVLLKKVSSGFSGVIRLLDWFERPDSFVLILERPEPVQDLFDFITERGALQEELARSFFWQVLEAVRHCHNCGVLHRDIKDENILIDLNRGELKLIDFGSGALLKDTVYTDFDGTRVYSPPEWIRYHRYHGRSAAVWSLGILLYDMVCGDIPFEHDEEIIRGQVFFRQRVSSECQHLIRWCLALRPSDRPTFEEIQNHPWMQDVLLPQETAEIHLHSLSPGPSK
# Sequence of PIM1 D186N mutant fused to GFP with a myc tag (chain, as listed by the source D186N): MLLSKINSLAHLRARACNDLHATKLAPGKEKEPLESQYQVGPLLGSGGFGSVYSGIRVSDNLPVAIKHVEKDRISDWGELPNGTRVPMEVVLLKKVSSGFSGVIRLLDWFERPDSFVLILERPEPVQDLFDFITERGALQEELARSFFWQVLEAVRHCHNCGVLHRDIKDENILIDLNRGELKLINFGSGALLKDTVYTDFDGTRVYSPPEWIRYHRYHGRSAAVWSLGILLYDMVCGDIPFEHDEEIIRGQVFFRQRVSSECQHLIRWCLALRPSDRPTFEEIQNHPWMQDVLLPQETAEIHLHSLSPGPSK
# Sequence of wild type PIM1 fused to GFP with a myc tag (chain, as listed by the source): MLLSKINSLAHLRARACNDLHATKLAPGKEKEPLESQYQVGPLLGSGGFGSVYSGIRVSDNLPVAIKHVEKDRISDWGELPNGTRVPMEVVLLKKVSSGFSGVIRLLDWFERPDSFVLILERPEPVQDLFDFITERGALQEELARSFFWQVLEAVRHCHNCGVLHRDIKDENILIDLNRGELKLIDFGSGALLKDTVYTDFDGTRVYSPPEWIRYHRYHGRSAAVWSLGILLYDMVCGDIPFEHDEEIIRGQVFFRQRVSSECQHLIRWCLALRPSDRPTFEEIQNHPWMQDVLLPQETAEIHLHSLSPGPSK
row,Substance,"kinase activity (immune complex kinase assay, 32P-ATP)"
1,PIM1 D186N mutant fused to GFP with a myc tag,"Wild type PIM1 exhibited kinase activity, while the mutant PIM1 proteins did not."
2,Pim1 K67A mutant fused to GFP with a myc tag,"Wild type PIM1 exhibited kinase activity, while the mutant PIM1 proteins did not."
3,wild type PIM1 fused to GFP with a myc tag,"Wild type PIM1 exhibited kinase activity, while the mutant PIM1 proteins did not."
